Assay results: the nanobody polyreactivity screen of Harvey et al. (2022)

Test: yeast display, Sf9 membrane polyspecificity reagent, FACS + sequencing; frameworks hold sequencing errors
Procedure, shortened: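 Galactose-induced (36–48 hours) yeast carrying a synthetic nanobody display library were exposed to 10% biotinylated, detergent-solubilized Sf9 membrane reagent at 4 °C for 1 hour. FACS followed streptavidin microbead enrichment, using low and high (top ~1%) gates for expression (anti-HA) and reagent binding (streptavidin). Colony PCR, MiSeq 2 × 250 sequencing and CDR-length filtering followed. Labels for polyreactivity reflect the gate of origin.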

Sequence | polyreactivity (PSR sort gate)
QVQLVESGGGLVQAGGSLRLSCAASGRTFTGYAMGWYRQAPGKERELVAAISASGGSTYYADSVKGRFTISRDIAKNTVYFQMNSLKPEDTAVYYCAAETWYSVLWEEGYDYWGQGTQVTVSS | low polyreactivity
QVQLVESGGGLVQAGGSLRLSCAASGRTFTGYAMGWYRQAPGKERELVASISGSGGRTNYADSVKGRFTISRDNAKNTVYLQMNSLKPEDTAVYYCNARAHSYRKSSYIYLPYSYDYWGQGTQVTVSS | high polyreactivity
QVQLVESGGGLVQAGGSLRLSCAASGRTFTGYAMGWYRQAPGKERELVASISSRGGSTYYADSVKGRFTISRDNAKNTVYLQMNSLKPEDTAVYYCAADSVRHTYSWWYAVDYWGQGTQVTVSS | high polyreactivity
QVQLVESGGGLVQAGGSLRLSCAASGRTFTHNAMGWYRQAPGKERELVAGITSGGSTNYADSVKGRFTISRDNAKNTVYLQMNSLKPEDTAVYYCNKVFFWSRYKGYYYWGQGTQVTVSS | high polyreactivity
QVQLVESGGGLVQAGGSLRLSCAASGRTFTHYAMGWYRQAPGKERELVAAISWSGGRTYYADSVKGRFTISRDNAKNTVYLQMNSLKPEDTAVYYCAADAFRGFYWGQGTQVTVSS | high polyreactivity
QVQLVESGGGLVQAGGSLRLSCAASGRTFTKYAMGWYRQAPGKERELVAAISRSGGSSYYADSAPGRFTISRDNAKNTVYLQMNSLKPEDTAVYYCAARGQYRYSFGDYSWGQGTQVTVSS | high polyreactivity
QVQLVESGGGLVQAGGSLRLSCAASGRTFTLNAMGWYRQAPGKEREFVAAISNSGVRTYYADSVKGRFTISRDNAKNTVYLQMNSLKPEDTAVYYCARTYQVGDSIDDYWGQGTQVTVSS | low polyreactivity
QVQLVESGGGLVQAGGSLRLSCAASGRTFTLNAMGWYRQAPGKERELVATISRRGGSTYYADSVKGRFTISRDNAKNTVYLQMNSLKPEDTAVYYCNVDRLGQRYDYWGQGTQVTVSS | low polyreactivity
QVQLVESGGGLVQAGGSLRLSCAASGRTFTNYAMGWYRQAPGKERELVAAISKRGGTTYYADSVKGRFTISRDNAKNTVYLQMNSLKPEDTAVYYCNKAKTAYRGQYDYWGQGTQVTVSS | high polyreactivity
QVQLVESGGGLVQAGGSLRLSCAASGRTFTQNAMGWYRQAPAKERELVAAISKSGDRTYYADSVKGRFTISRDNAKNTVYLQMNSLKPEDTAVYYCAADTYVSYYWWQTEDDYWGQGTQVTVSS | high polyreactivity
QVQLVESGGGLVQAGGSLRLSCAASGRTFTQYAMGWYRQAPGKEREFVAAINFSGSRTYYADSVKGRFTISRDNAKNTVYLQMNSLKPEDTAVYYCNKRGSVYTSSQRQHDYWGQGTQVTVSS | low polyreactivity
QVQLVESGGGLVQAGGSLRLSCAASGRTFTQYAMGWYRQAPGKERELVAAISWRGGSTYYADSVKGRFTISRDNAKNTVYLQMNSLKPEDTAVYYCAKRYFRGYPLYDYWGQGTQVTVSS | high polyreactivity
QVQLVESGGGLVQAGGSLRLSCAASGRTFTRYAMGWYRQAPGKERELVAAISRGGNTNYADSVKGLFTISRDNAKNTVYLQMNSLKPEDTAVYYCARVYGGYSVPSAYGSWGQGTQVTVSS | high polyreactivity
QVQLVESGGGLVQAGGSLRLSCAASGRTFTSYAMGWYRQAPGKERELVAAISSSGSSTYYADSVKGRFTISRDNAKNTVYLQMNSLKPEDTAVYYCAVGGSFRYRVQYDYWGQGTQVTVSS | high polyreactivity
QVQLVESGGGLVQAGGSLRLSCAASGRTFTSYVMGWYRQAPGKERELVAAISWSGDSTYYADSVKGRFTISRDNAKNTVYLQMNSLKPEDTAVDYCARVPPAAYVAYDYWGQGTQVTVSS | high polyreactivity
QVQLVESGGGLVQAGGSLRLSCAASGRTFTVYAMGWYRQAPGKEREFVATISRSGGSTYYADSVKGRFTISRDNAKNTVYLQMNSLKPEDTAVYYCAARRSGRKYDYWGQGTQVTVSS | high polyreactivity
QVQLVESGGGLVQAGGSLRLSCAASGRTFTWYAMGWYRQAPGKERELVAAITNGGRRYADSVKGRFTISRDNAKTTVYLQMNSLKPEDTAVYYCATQPLTWSSYRWDWRAQFDHWGQGTQVTVSS | low polyreactivity
QVQLVESGGGLVQAGGSLRLSCAASGRTFTYNAMGWYRQAPGKDRELVARISFSGSSTYYADSVKGRFTISRDNAKNTVYLQMNSLKPEDTAVYYCATEAPYYIGGRYRYQRYDYWGQGTQVTVSS | high polyreactivity
QVQLVESGGGLVQAGGSLRLSCAASGRTFTYNMGWYRQAPGKERELVAANDLRRLCEGALHNFTRQCDEYRLFTDEQPETGRYPVYYCNADPAWIWYTFDYWGQGTQVTVSS | low polyreactivity
QVQLVESGGGLVQAGGSLRLSCAASGRTFTYYAMGWYIQAPGKEREFVASISLSGGRTYYADSVKGRFTISRDNAKNTVYLQMNSLKPEDTAVYYCNAYYPRVDRYDYWGQGTQVTVSS | low polyreactivity
QVQLVESGGGLVQAGGSLRLSCAASGRTFTYYAMGWYRPAPGKERELVASISTTGRTYYADSVKGRFTISRDNAKNTVYLQMNSLKPEDTAVYYCATRSRYYYDYWGQGTQVTVSS | high polyreactivity
QVQLVESGGGLVQAGGSLRLSCAASGRTFTYYAMGWYRQAPGKQRELVASINQNGGDTYYADSVKGRFTLSRDNAKNTDYLQMNSLKPADTAVYYCAAEAGYYVQTVAVDMGYWGQGTQVTVSS | low polyreactivity

Sequence | polyreactivity (PSR sort gate)
QVQLVESGGGLVQAGGSLRLSCAASGRTFVANAMGLYRQAPGKERELVAAISSSGGSTYYADSVKGRFTISRDYAKNTVYLQMNSLKPEDTAVYYCNRVGVYYRLYPYYYWGQGTQVTVSS | high polyreactivity
QVQLVESGGGLVQAGGSLRLSCAASGRTFVDNAMGWYRQAPGKKRELVATISSGDSTTYADSVKGRFTISRDNAKNTVYLQMNSLKPEDTAVYYCAAAYGWSWYRYDYWGQGTQVTVSS | high polyreactivity
QVQLVESGGGLVQAGGSLRLSCAASGRTFVFNAMGWYRQAPGKERELVAAITISGGSTYYADSVKGRFTISRDNAKNTVYLQMNSLKPEDTAVYYCNADSKIEVFSYIYDYWGQGTQVTVSS | high polyreactivity
QVQLVESGGGLVQAGGSLRLSCAASGRTFVFNTMGWYRQAPGKERELVADISRGDSTNYADSVKGRFTISRDNAKNTVYLQMNSLKPEDTAVYYCAAKWRWSGSILYRYGYGYWGQGTQVTVSS | high polyreactivity
QVQLVESGGGLVQAGGSLRLSCAASGRTFVFYAMGWYRPAPGKERELVADITWSDGNTYYADSVKGRFTISRDNAKNSVYLQMKSLKPEDTAVYYCAKVRTGQSRSVGYDYWGQGTQVTGSS | low polyreactivity
QVQLVESGGGLVQAGGSLRLSCAASGRTFVFYAMGWYRQAPGKERELVAAITSSGGRTYYADSVKGRFTISRDNAKNTVYLQMNSLKPEDTAFYYCAAPYYPYKYDYWGQGTQVTVSS | low polyreactivity
QVQLVESGGGLVQAGGSLRLSCAASGRTFVGNAMGWYRQAPGKERELVAAITVNGVRTYYADSVKGRFTSSRDNAKNTVYLQMNSLKPEATAVYYCARDALHYAGSLHRYGYWGQGTQVTVSS | low polyreactivity
QVQLVESGGGLVQAGGSLRLSCAASGRTFVGNTMGWYRQAPGKERELVAAISSGGRTYYADSVKGRFTISRDNAKNTVYLQMNSLKPEDTAVYYCAARRRGKVVPTSQFDYWGQGTQVTVSS | high polyreactivity
QVQLVESGGGLVQAGGSLRLSCAASGRTFVGYAMGWYRQAPGKERELLAAISKSGGRTYYADSVKGRFTISRDNAKNTVFLQMNSLKPDDTAVYYCNAVVVYYVDAGRYDYWGQGTQVTVSS | high polyreactivity
QVQLVESGGGLVQAGGSLRLSCAASGRTFVGYAMGWYRQAPGKERELVAAITSGGGTYYADSVKGRFTISRDNAKNTVYLQMNSLKPEDTAVYYCNRASRRGYYYPYNYWGQGTQVTVSS | high polyreactivity
QVQLVESGGGLVQAGGSLRLSCAASGRTFVGYAMGWYRQAPGKERELVAVISGRGGSTYYADSVKGRFTISRDNAKNTVYLQMNSLKPEDTAVYYCAAYVARKWTSGYWGQGTQVTVSS | high polyreactivity
QVQLVESGGGLVQAGGSLRLSCAASGRTFVGYVMGWYRQAPGKERELVAAISKIGGRTYYADSVKGRFTISRDNAKNTVYLQMNSLKTEDTAVYYCAAERTKSIKLPRPGSMDYWGQGTQVTVSS | low polyreactivity
QVQLVESGGGLVQAGGSLRLSCAASGRTFVIYTMGWYRQAPGKERELVAAITQRGGITYYADSVKGRFTISRDNAKNTVYLQMNSLKPEDTAVYYCNSGRTYRRLGDYWGQGTQVTVSS | high polyreactivity
QVQLVESGGGLVQAGGSLRLSCAASGRTFVNYVMGWYRQAPGKEREFVAAISRNGGSTYYADSVKGRFTISRDNAKNTVYLQMNSLKPEDTAVYYCAARVYWRYNYWGQGTQVTVSS | high polyreactivity
QVQLVESGGGLVQAGGSLRLSCAASGRTFVPYAMGWYRQAPGKERELVATITSAGSTYYADSVKGRFTISRDNAKNTVYLQMNSLKPEDTAVYYCNARYYSRRWPYDYWGQGTQVTVSS | high polyreactivity
QVQLVESGGGLVQAGGSLRLSCAASGRTFVQYAMGWYRQAPGKERELVARITSVRSTNYADSVKGRFTISRDNAKNTVYLQLNSLKPEDTAVFYCAAPTVVYRSYYYWGQGTQVTVSS | high polyreactivity
QVQLVESGGGLVQAGGSLRLSCAASGRTFVRNAMAWYRQAPGKERELVAAITYGGGNTYYADSVKGRFTISRDNAKNTVYLQMNSLKPEDTAVYYCAKRRLYWSGQGWVRTYGYWGQGTQVTVSS | high polyreactivity
QVQLVESGGGLVQAGGSLRLSCAASGRTFVRNAMGWYRQAPGKERELVAGITRSGGSTYYADSVKGRFTISRDNAKNTVYLQMNSLKPEDTAVYYCAKRYDVYVGTVRPYDYWGQGTQVTVSS | low polyreactivity
QVQLVESGGGLVQAGGSLRLSCAASGRTFVRNAMGWYRQAPGKERELVASITSGGSTYYADSVKGRFTISRDNAKNTVYLQMNSLKAEDTAVYYCAKRTYTPVYGYYYWGQGTQVTVSS | high polyreactivity
QVQLVESGGGLVQAGGSLRLSCAASGRTFVRYALGWYRQAPGKERELVAAISWNDNSTYYADSVKGRFTISRDNAKNTVYLQMNSLKPEDTAVYYCATRVLTQQPGYQAYIFPEFDYWGQGTQVTVSS | low polyreactivity
QVQLVESGGGLVQAGGSLRLSCAASGRTFVRYAMGWYRQAHGKERELVAAIDSSGGRTYYADSVKGRFTISRDNAKNTVYLQMNSLKPEDTAVYYCNARRLASYRGYSWGQGTQVTVSS | high polyreactivity
